# Measured values as given in IntAct's records for PubMed 10545207.
# B1: GTP-binding protein Rit2 (Mus musculus), P70425 (parent)
# chain: MEVENEAHCCPGSSSGGSREYKVVMLGAGGVGKSAVTMQFISHQFPDYHDPTIEDAYKTQVRIDNEPAYLDILDTAGQAEFTAMREQYMRGGEGFIICYSVTDRQSFQEAAKFKELIFQVRHTYEIPLVLVGNKIDLEQFRQVSTEEGMNLARDYNCAFFETSAALRFGIDDAFQGLVREIRRKESMLSLVERKLKRKDSLWKKIKASLKKKRENML
# B2: GTP-binding protein Rit2 (Mus musculus), P70425 (parent)
# chain: B1 chain
# partner: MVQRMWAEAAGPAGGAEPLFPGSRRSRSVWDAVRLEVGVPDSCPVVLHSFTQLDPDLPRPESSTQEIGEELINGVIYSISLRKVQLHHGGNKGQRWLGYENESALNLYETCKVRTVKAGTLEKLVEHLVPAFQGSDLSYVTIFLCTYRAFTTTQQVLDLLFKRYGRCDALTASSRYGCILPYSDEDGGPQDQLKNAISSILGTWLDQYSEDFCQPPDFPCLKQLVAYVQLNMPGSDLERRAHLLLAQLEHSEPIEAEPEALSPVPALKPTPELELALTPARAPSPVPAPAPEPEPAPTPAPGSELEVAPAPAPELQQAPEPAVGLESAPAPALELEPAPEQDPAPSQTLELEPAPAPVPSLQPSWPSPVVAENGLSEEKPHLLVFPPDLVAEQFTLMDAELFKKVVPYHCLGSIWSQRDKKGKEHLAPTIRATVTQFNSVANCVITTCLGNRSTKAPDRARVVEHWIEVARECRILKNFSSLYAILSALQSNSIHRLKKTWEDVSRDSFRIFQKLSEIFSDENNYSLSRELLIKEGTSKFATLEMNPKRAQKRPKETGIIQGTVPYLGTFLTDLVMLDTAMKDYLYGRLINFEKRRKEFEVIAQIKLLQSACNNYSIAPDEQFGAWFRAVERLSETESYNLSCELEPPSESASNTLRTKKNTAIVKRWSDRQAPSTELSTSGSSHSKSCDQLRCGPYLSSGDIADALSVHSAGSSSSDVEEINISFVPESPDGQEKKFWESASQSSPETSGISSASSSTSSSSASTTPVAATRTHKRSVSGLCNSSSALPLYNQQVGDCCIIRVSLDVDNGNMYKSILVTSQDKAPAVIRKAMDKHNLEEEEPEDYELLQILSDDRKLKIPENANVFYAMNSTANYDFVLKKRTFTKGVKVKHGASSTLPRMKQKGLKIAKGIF
# Variants of: B1
# Details: with rlf_human RLF
row,Variant,effect of a mutation on the interaction
1,S34N,decreasing interaction

# Variants of: B1
# Details: with afad_human AFDN
row,Variant,effect of a mutation on the interaction
1,S34N,decreasing interaction

# Variants of: B2
# Details: with gnds_human RALGDS
row,Variant,effect of a mutation on the interaction
1,S34N,decreasing interaction
